The experiment concerns the target TMED2 (overexpressed) (UniProt Q15363). Nature of the experiment: SEC; gel filtration of overexpressed protein in octyl-β-glucoside, a harsher detergent. A general note: In gel filtration, larger molecules generally elute earlier.

The values that follow come from publication PMC11414720.

For orientation: stoichiometry N means a count of units in the complex or per binding partner.

Sequence of TMED2 (overexpressed), Q15363 21-201 (receptor; other documents disagree on this pair) (Q15363 21-201): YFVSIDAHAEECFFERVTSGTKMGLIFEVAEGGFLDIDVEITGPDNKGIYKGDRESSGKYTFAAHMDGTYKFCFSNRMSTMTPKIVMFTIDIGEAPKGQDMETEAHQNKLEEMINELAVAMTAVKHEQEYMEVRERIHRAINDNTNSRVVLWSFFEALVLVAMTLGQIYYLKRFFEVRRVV

“TMED2 (overexpressed), Q15363 21-201 (receptor; other documents disagree on this pair)” gave a stoichiometry N of 2.
